Data taken from patent US20150037868.

Columns and labels:
[1] = system: Pta variant with HRV protease cleavage motif inserted after amino acid 387
[2] = system: Pgi with HRV 3C recognition sequence inserted after amino acid 110
[3] = system: Pgi with HRV 3C recognition sequence inserted after amino acid 410
[4] = system: Pgi with HRV 3C recognition sequence inserted after amino acid 530
[5] = system: Pgi with HRV 3C recognition sequence inserted after amino acid 527
[6] = system: Pgi with HRV 3C recognition sequence inserted after amino acid 529
[7] = system: Pgi with HRV 3C recognition sequence inserted after amino acid 532
[8] = system: Pgi with HRV 3C recognition sequence inserted after amino acid 138
[9] = system: Pgi-HRV-I526 (Pgi with HRV 3C recognition sequence inserted after amino acid 526)
[10] = system: Pta variant with HRV protease cleavage motif inserted after amino acid 382
[11] = system: Pgi with HRV 3C recognition sequence inserted after amino acid 109
[12] = system: Pta variant with HRV protease cleavage motif inserted after amino acid 381
[13] = system: Pgi with HRV 3C recognition sequence inserted after amino acid 108
[14] = system: Pgi with HRV 3C recognition sequence inserted after amino acid 531
[15] = system: Pta variant with HRV protease cleavage motif inserted after amino acid 409
[16] = system: Pgi with HRV 3C recognition sequence inserted after amino acid 528
[17] = system: wild-type Pgi protein (phosphoglucose isomerase of Escherichia coli)

With “exogenous HRV 3C protease (ACCELAGEN H0101S)” the “in vitro Pta activity with or without exogenously supplied HRV protease, 30 minutes at 37 C” value [1] was “In all cases, Pta activity was dramatically reduced upon incubation with HRV protease”, the Pgi Activity/Activity wild type, +protease; -protease value 0.92 [2] was 0.84 and the Pgi activity in clarified lysate, +protease (10 units exogenous HRV 3C protease, 4 h, 37 C); -protease value 2.13 (µmol/min/mg total protein) [2] was 1.99. The Pgi Activity/Activity wild type, +protease; -protease value 0.50 [3] was 0.41, the Pgi activity in clarified lysate, +protease (10 units exogenous HRV 3C protease, 4 h, 37 C); -protease value 1.16 (µmol/min/mg total protein) [3] was 0.96 and the Pgi Activity/Activity wild type, +protease; -protease value 0.33 [4] was 0.12. It also gave a Pgi activity in clarified lysate, +protease (10 units exogenous HRV 3C protease, 4 h, 37 C); -protease value 0.77 (µmol/min/mg total protein) [4] of 0.29, a Pgi Activity/Activity wild type, +protease; -protease value 0.84 [5] of 0.6 and a Pgi activity in clarified lysate, +protease (10 units exogenous HRV 3C protease, 4 h, 37 C); -protease value 1.93 (µmol/min/mg total protein) [5] of 1.42. The Pgi Activity/Activity wild type, +protease; -protease value 0.64 [6] was 0.5, the Pgi activity in clarified lysate, +protease (10 units exogenous HRV 3C protease, 4 h, 37 C); -protease value 1.48 (µmol/min/mg total protein) [6] was 1.19 and the Pgi Activity/Activity wild type, +protease; -protease value 0.50 [7] was 0.22. It also gave a Pgi activity in clarified lysate, +protease (10 units exogenous HRV 3C protease, 4 h, 37 C); -protease value 1.15 (µmol/min/mg total protein) [7] of 0.52, a Pgi Activity/Activity wild type, +protease; -protease value 0.27 [8] of 0.16 and a Pgi activity in clarified lysate, +protease (10 units exogenous HRV 3C protease, 4 h, 37 C); -protease value 0.62 (µmol/min/mg total protein) [8] of 0.37. For the same substance, the Pgi Activity/Activity wild type, +protease; -protease value 0.83 [9] was 0.19, the Pgi activity in clarified lysate, +protease (10 units exogenous HRV 3C protease, 4 h, 37 C); -protease value 1.92 (µmol/min/mg total protein) [9] was 0.44 and the “in vitro Pta activity with or without exogenously supplied HRV protease, 30 minutes at 37 C” value [10] was “In all cases, Pta activity was dramatically reduced upon incubation with HRV protease”. For the same substance, the Pgi Activity/Activity wild type, +protease; -protease value 1.10 [11] was 0.78, the Pgi activity in clarified lysate, +protease (10 units exogenous HRV 3C protease, 4 h, 37 C); -protease value 2.54 (µmol/min/mg total protein) [11] was 1.86 and the “in vitro Pta activity with or without exogenously supplied HRV protease, 30 minutes at 37 C” value [12] was “In all cases, Pta activity was dramatically reduced upon incubation with HRV protease”. The Pgi Activity/Activity wild type, +protease; -protease value 0.94 [13] was 0.86, the Pgi activity in clarified lysate, +protease (10 units exogenous HRV 3C protease, 4 h, 37 C); -protease value 2.16 (µmol/min/mg total protein) [13] was 2.03 and the Pgi Activity/Activity wild type, +protease; -protease value 0.56 [14] was 0.28. For the same substance, the Pgi activity in clarified lysate, +protease (10 units exogenous HRV 3C protease, 4 h, 37 C); -protease value 1.29 (µmol/min/mg total protein) [14] was 0.67, the “in vitro Pta activity with or without exogenously supplied HRV protease, 30 minutes at 37 C” value [15] was “In all cases, Pta activity was dramatically reduced upon incubation with HRV protease” and the Pgi Activity/Activity wild type, +protease; -protease value 0.45 [16] was 0.26. The Pgi activity in clarified lysate, +protease (10 units exogenous HRV 3C protease, 4 h, 37 C); -protease value 1.04 (µmol/min/mg total protein) [16] was 0.63, the Pgi Activity/Activity wild type, +protease; -protease value 1 [17] was 1 and the Pgi activity in clarified lysate, +protease (10 units exogenous HRV 3C protease, 4 h, 37 C); -protease value 2.31 (µmol/min/mg total protein) [17] was 2.37.
